Laboratory results taken from patent US20210054078A1.
Numbering of substitutions follows the chain as printed.

B1: 1G1.D8 scFv phage clone (scFv, part only; not given: scFv linker, part only)
scFv, part: QVQLVESGGGLVQPGRSLRLSCAASGFTFDDYAMHWVRQAPGKGLEWVSGISWNSGSIGYADSVKGRFTISRDNAKNSLYLQMNSLRAEDTAVYYCAKPRDISSWLGMDVWGQGTTVTVSSDIQMTQSPSSVSASVGDRVTITCRASQDISSWLAWYQQKPGKAPKLLIYAASSLQSGVPSRFSGSGSGTDFTLTISSLQPEDSATYYCQQTTNFPYTFGQGTKLEIKR
B2: ME4 scFv phage clone (scFv, V domains shown, part only)
VH: QVQLVESGAEVKKPGSSVKVSCKASGGTFNNYAVSWVRQAPGQGLEWMGRIIPILGIANYAQTFQGRVTITADKSTTTAYMELSSLRSEDTAVYYCARSYSGYAEGAFDIWGQGTMVTVSS
VL: QFVLTQPPSVSGAPGQRVTISCTGSSSNIGAGYDVHWYQQLPGTAPKVLIYGNSDRPSGVPDRFSGSKSGTSASLAITGLQGEDKATYYCQSYDSRLSGPVFGTGTKVTVLG
modifications: scFv linker not given; phage display
B3: ME4.A11 scFv phage clone (scFv, V domains shown, part only)
VH: B2 VH with Y100R, S101G, E105H
VL: B2 VL
modifications: scFv linker not given
B4: ME4.A12 scFv phage clone (scFv, V domains shown, part only)
VH: B2 VH with Y100H, S101W, E105H
VL: B2 VL
modifications: scFv linker not given
B5: ME4.B10 scFv phage clone (scFv, V domains shown, part only)
VH: B2 VH with Y100A, S101R, E105H
VL: B2 VL
modifications: scFv linker not given
B6: ME4.A2 scFv phage clone (scFv, V domains shown, part only)
VH: B2 VH with Y100S, S101R, E105H
VL: B2 VL
modifications: scFv linker not given
B7: ME4.B12 scFv phage clone (scFv, V domains shown, part only)
VH: B2 VH with Y100S, S101F, A104S, E105V
VL: B2 VL
modifications: scFv linker not given
B8: 1G1 scFv phage clone (scFv, V domains shown, part only)
VH: QVQLVESGGGLVQPGRSLRLSCAASGFTFDDYAMHWVRQAPGKGLEWVSGISWNSGSIGYADSVKGRFTISRDNAKNSLYLQMNSLRAEDTAVYYCAKPRDISSWLGMDVWGQGTTVTVSS
VL: DIQMTQSPSSVSASVGDRVTITCRASQDISSWLAWYQQKPGKAPKLLIYAASSLQSGVPSRFSGSGSGTDFTLTISSLQPEDSATYYCQQTNNFPYTFGQGTKLEIKR
modifications: scFv linker not given; phage display
B9: 1G1.E12 scFv phage clone (scFv, V domains shown, part only)
VH: B8 VH
VL: B8 VL with N92V, N93T
modifications: scFv linker not given

Columns and labels:
[1] = biological target: human PD-L1 (soluble protein of the kinetic measurements) (human) (UniProt Q9NZQ7); assay: dissociation rate constant of scFv phage clone, method not named
Chain of human PD-L1 (soluble protein of the kinetic measurements) (human) (Q9NZQ7 19-238 limits assumed): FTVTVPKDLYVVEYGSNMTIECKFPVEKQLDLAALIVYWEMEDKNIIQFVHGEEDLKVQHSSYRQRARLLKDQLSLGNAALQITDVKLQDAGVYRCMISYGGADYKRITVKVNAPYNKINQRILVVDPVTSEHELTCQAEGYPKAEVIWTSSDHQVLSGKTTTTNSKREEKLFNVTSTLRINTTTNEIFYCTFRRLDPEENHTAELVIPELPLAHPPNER

[2] = biological target: mouse PD-L1 (soluble protein of the kinetic measurements) (mouse) (UniProt Q9EP73); assay: as above
Chain of mouse PD-L1 (soluble protein of the kinetic measurements) (mouse) (Q9EP73 19-238 limits assumed): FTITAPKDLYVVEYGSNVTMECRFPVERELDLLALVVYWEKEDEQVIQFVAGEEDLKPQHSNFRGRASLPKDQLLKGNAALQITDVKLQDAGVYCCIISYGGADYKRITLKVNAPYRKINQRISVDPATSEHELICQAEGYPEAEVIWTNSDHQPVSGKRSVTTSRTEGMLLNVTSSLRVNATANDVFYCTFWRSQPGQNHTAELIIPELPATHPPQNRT

[3] = biological target: Human PD-L1-HisTag (#10084-H08H, Sino Biological Inc.) (human) (UniProt Q9NZQ7); assay: ELISA, scFv phage supernatant on coated His-tag PD-L1, anti-M13-HRP
Chain of Human PD-L1-HisTag (#10084-H08H, Sino Biological Inc.) (human) (Q9NZQ7 19-238 limits assumed): as the sequence (Q9NZQ7 19-238 limits assumed) above

[4] = biological target: Mouse PD-L1-HisTag (#50010-M08H, Sino Biological Inc.) (mouse) (UniProt Q9EP73); assay: as above
Chain of Mouse PD-L1-HisTag (#50010-M08H, Sino Biological Inc.) (mouse) (Q9EP73 19-238 limits assumed, stated change not applied): as the sequence (Q9EP73 19-238 limits assumed) above

[5] = biological target: human PD-L1 on hPD-L1/CHO-K1 overexpressing cells (human) (UniProt Q9NZQ7); assay: flow cytometry, scFv phage supernatant on hPD-L1/CHO-K1 cells
Chain of human PD-L1 on hPD-L1/CHO-K1 overexpressing cells (human) (Q9NZQ7 19-290): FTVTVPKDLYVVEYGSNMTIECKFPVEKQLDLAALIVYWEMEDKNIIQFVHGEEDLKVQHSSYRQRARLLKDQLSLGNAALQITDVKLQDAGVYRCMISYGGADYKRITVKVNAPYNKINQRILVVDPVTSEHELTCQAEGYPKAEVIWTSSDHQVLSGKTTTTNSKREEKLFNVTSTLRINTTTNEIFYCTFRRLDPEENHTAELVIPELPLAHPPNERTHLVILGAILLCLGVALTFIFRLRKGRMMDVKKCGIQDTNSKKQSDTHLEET

Binder | koff [1] [s⁻¹] | koff [2] [s⁻¹] | also measured
B1 | 0.000242 |  | 
B2 | 0.000186 | 0.000374 | OD450-630 [3]: 1.66; OD450-630 [4]: 1.44
B3 | 7.86e-05 | 0.000486 | 
B4 | < 1e-07 | 0.00101 | 
B5 | 0.00016 | 0.000467 | 
B6 | 0.000183 | 0.000852 | 
B7 | 0.000177 | 0.000753 | 
B8 | 0.000152 |  | % Gated in M1 [5]: 99.4%; Geo Mean in M1 [5]: 184; Geo Mean, all events [5]: 181; Mean in M1 [5]: 248; Mean, all events [5]: 246; OD450-630 [3]: 1.38; OD450-630 [4]: 0.35
B9 | 0.000268 |  | 
